Measured values as given in patent publication US20090118135A1, “METHODS AND COMPOUNDS FOR REGULATING APOPTOSIS” (The Burnham Institute, priority 2007, published 2009).
Blank lines part the entries; values can stand above or below the molecule they belong to. Where no end group is shown, it is not given here. [ ]: non-standard residue; d: D form. The star is where a group is joined. FITC = O=C1OC2(c3ccc(O)cc3Oc3cc(O)ccc32)c2ccc(NC(=S)*)cc21; Ahx = NCCCCCC(=O)O

Experiments:
[1] = molecular target: T1, GST-Bfl-1 (Homo sapiens, UniProt Q16548); experiment: FITC-TR3-9-r8 direct binding fluorescence polarization assay, Bfl-1; details: FIG. 2B; result in words
T1 construct: lacking their C-terminal transmembrane domains (about the last 20 amino acids) (“ΔTM”); made in house; host or cells: XL-1 Blue E. coli, pGEX 4T-1
T1 sequence (Q16548 1-155 limits assumed): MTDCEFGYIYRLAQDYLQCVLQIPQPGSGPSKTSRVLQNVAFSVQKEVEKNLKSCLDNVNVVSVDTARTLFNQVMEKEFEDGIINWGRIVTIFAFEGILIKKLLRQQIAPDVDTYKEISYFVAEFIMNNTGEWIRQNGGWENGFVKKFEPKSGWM

[2] = molecular target: T2, GST-Bcl-XL (Homo sapiens, UniProt Q07817); experiment: FITC-TR3-9-r8 direct binding fluorescence polarization assay, Bcl-XL; details: FIG. 2A; result in words
T2 construct: lacking their C-terminal transmembrane domains (about the last 20 amino acids) (“ΔTM”); made in house; host or cells: XL-1 Blue E. coli, pGEX 4T-1
T2 sequence (Q07817 1-212 limits assumed): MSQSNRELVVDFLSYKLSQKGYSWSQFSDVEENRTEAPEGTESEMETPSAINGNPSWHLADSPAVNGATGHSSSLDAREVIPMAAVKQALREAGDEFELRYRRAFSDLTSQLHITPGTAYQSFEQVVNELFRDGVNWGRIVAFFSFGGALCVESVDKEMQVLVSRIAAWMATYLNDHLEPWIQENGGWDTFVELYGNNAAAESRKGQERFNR

[3] = molecular target: T3, GST-Bcl-W (Homo sapiens, UniProt Q92843); experiment: FITC-TR3-9-r8 direct binding fluorescence polarization assay, Bcl-W; details: FIG. 2B; result in words
T3 construct: GST-fusion proteins containing ΔTM versions of Bcl-2, Bcl-XL, Bfl-1, Mcl-1, Bcl-W, and Bcl-B; made in house
T3 sequence (Q92843 1-173 limits assumed): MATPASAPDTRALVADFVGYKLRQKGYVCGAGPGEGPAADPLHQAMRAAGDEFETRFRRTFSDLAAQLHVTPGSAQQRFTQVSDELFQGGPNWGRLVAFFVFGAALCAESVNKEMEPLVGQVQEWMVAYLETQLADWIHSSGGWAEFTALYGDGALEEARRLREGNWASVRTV

[4] = molecular target: T4, GST-Bcl-B (Homo sapiens, UniProt Q9HD36); experiment: FITC-TR3-r8 direct binding fluorescence polarization assay, Bcl-B; parameters: their C-terminal transmembrane domains (˜20 amino acids) were deleted to enhance protein solubility; made in house; host or cells: E. coli (BL21 Star (DE3); XL-1 Blue), pGEX-4T-1; details: FIG. 2A; result in words
T4 sequence (Q9HD36 1-182 limits assumed): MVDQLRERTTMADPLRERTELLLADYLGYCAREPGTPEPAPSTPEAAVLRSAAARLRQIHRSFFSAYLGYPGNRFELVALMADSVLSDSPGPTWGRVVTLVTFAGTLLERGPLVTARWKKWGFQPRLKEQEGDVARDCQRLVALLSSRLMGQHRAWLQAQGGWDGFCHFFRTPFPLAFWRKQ

[5] = molecular target: GST-Bcl-2 (Homo sapiens, UniProt P10415); experiment: FITC-TR3-9-r8 direct binding fluorescence polarization assay, Bcl-2; parameters: their C-terminal transmembrane domains (˜20 amino acids) were deleted to enhance protein solubility; made in house; host or cells: E. coli (BL21 Star (DE3); XL-1 Blue), pGEX-4T-1; details: FIG. 2A; result in words
Chain of GST-Bcl-2 (P10415 1-218 limits assumed): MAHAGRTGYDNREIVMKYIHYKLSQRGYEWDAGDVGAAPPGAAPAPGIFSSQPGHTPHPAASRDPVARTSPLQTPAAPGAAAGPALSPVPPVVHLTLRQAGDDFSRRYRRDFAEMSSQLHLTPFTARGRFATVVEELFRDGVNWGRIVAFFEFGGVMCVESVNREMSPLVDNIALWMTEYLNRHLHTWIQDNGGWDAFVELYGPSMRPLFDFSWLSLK

[6] = system: HeLa Tet-On-Bcl-B (HTO2) cells; experiment: Cell viability (ATPlite) in HeLa Tet-On-Bcl-B cells with or without doxycycline; assay type: cell-based; details: result in words
Method: (§1) FIG. 24A is a photograph of a blot wherein HeLa Tet-On (HTO1) and HeLa Tet-On-Bcl-B (HTO2) cells were treated with or without doxycycline (dox) for 24 h to induce their tetracycline-responsive promoters. Protein lysates were collected, and immunoblotting was used to analyze Bcl-B and Hsc70 (for loading control) expression. In FIG. 24B the cells were treated with or without doxycycline for 24 h, and then with staurosporine at the indicated concentrations for 24 h. Cell viability was measured using ATPlite. In FIG. 24C HeLa Tet-On-Bcl-B (HTO2) cells were treated with or without doxacycline as above. Compounds were then added at the indicated concentrations, and cell viability was measured 24 h later using ATPlite. The data shown represent mean±standard deviation (n=3).
HeLa Tet-On-Bcl-B cells were generated by stably transfecting the HeLa Tet-On cell line (Clontech, Mountain View, Calif.) with a pTRE2hyg vector (Clontech) containing the Bcl-B gene, using lipofectAMINE PLUS (Invitrogen, Carlsbad, Calif.). Briefly, cells were seeded overnight and transfected at 50% confluency for 3 h. After 24 h, the cells were re-seeded at <10% confluence and cultured in media (DMEM with 10% Tet System Approved FBS (Clontech)) containing G418 (100 μg/mL) and hygromycin B (300 μg/mL) for pTet-On and pTRE2hyg/Bcl-B plasmid maintenance, respectively. Positive foci resistant to both antibiotics were expanded. Colonies were then cultured in the presence or absence of doxycycline (Clontech, 1 μg/mL) for 16 h, and induced Bcl-B expression was confirmed by Western blot analysis. A previously developed polyclonal Bcl-B antibody^17 and an Hsc70 antibody (for protein concentration comparison; Santa Cruz Biotechnology, Santa Cruz, Calif.) were used.
(§2) Cells were seeded in 96-well plates at 5,000 cells/well in 100 μL of growth medium and allowed to incubate for 24 h. Afterwards, cells were incubated in the presence or absence of doxycycline (1 μg/mL) for another 24 h (to induce Bcl-B expression). Compounds were then added, as indicated, in a volume of 5 μL. The next day, cell viability was measured using the ATPlite Luminescence ATP Detection System (PerkinElmer, Waltham, Mass.) according to the manufacturer's specifications.

[7] = system: HeLa Tet-On (HTO1) cells; experiment: Cell viability (ATPlite) in control HeLa Tet-On cells; assay type: cell-based; details: cells do not express Bcl-B; result in words
Method: as §1, §2

[8] = molecular target: GST-Bcl-B ΔTM [GST: P08515]; experiment: fluorescence polarization binding curves
[9] = molecular target: GST-Bcl-2 ΔTM [GST: P08515]; experiment: fluorescence polarization, direct binding to GST-Bcl-2
[10] = molecular target: GST-Bcl-B ΔTM [GST: P08515]; experiment: fluorescence polarization, 20 nM FITC-TR3-r8 with increasing GST-Bcl-B
[11] = molecular target: GST-Bcl-B ΔTM [GST: P08515]; experiment: fluorescence polarization, 20 nM FITC-TR3-r8 with increasing GST-Bcl-B, HEPES/β-glycerophosphate buffer
[12] = molecular target: GST-Bfl-1 ΔTM [GST: P08515]; experiment: Bfl-1 FPA plate, well B12: FITC-BH3 and GST-Bfl-1 without compound
[13] = molecular target: GST-Bfl-1 ΔTM [GST: P08515]; experiment: Bfl-1 FPA plate, well C12: FITC-BH3 and GST-Bfl-1 without compound
[14] = molecular target: GST-Bfl-1 ΔTM [GST: P08515]; experiment: Bfl-1 FPA plate, well D12: FITC-BH3 and GST-Bfl-1 without compound
[15] = molecular target: GST-Bfl-1 ΔTM [GST: P08515]; experiment: Bfl-1 FPA plate, well E12: FITC-BH3 and GST-Bfl-1 without compound
[16] = molecular target: GST-Bfl-1 ΔTM [GST: P08515]; experiment: Bfl-1 FPA plate, well F12: FITC-BH3 and GST-Bfl-1 without compound
[17] = molecular target: GST-Bfl-1 ΔTM [GST: P08515]; experiment: Bfl-1 FPA plate, well G12: FITC-BH3 and GST-Bfl-1 without compound
[18] = molecular target: GST-Bfl-1 ΔTM [GST: P08515]; experiment: Bfl-1 FPA plate, well H12: FITC-BH3 and GST-Bfl-1 without compound
[19] = molecular target: T5, GST (glutathione S-transferase control protein) (UniProt P08515 1-218 = GST); experiment: fluorescence polarization, 5 nM FITC-Bid BH3 with various concentrations of GST
T5 construct: Negative control protein; also called control GST protein
T5 sequence (P08515 whole entry): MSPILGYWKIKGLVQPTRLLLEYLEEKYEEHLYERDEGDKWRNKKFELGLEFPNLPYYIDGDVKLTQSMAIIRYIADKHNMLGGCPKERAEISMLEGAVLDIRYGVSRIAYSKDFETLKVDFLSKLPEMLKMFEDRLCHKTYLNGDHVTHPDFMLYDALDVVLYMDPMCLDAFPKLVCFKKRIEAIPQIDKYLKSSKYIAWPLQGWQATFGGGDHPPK

[20] = molecular target: GST-Bfl-1 ΔTM [GST: P08515]; experiment: Bfl-1 FPA plate, well A12: FITC-BH3 and GST-Bfl-1 without compound (peptide-alone wells 43-52 mP)

Molecule: CC(C)C[C@H](NC(=O)[C@H](CC(C)C)NC(=O)[C@H](CO)NC(=O)[C@H](Cc1c[nH]cn1)NC(=O)[C@H](CC(C)C)NC(=O)[C@H](CO)NC(=O)[C@H](CCCNC(=N)N)NC(=O)[C@H](CO)NC(=O)[C@H](Cc1ccccc1)NC(=O)CCCCCNC(=S)Nc1ccc2c(c1)C(=O)OC21c2ccc(O)cc2Oc2cc(O)ccc21)C(=O)NCC(=O)NCCCCCC(=O)N[C@H](CCCNC(=N)N)C(=O)N[C@H](CCCNC(=N)N)C(=O)N[C@H](CCCNC(=N)N)C(=O)N[C@H](CCCNC(=N)N)C(=O)N[C@H](CCCNC(=N)N)C(=O)N[C@H](CCCNC(=N)N)C(=O)N[C@H](CCCNC(=N)N)C(=O)N[C@H](CCCNC(=N)N)C(N)=O [FITC-TR3-9-r8]
binding to GST-Bfl-1 [1]: Binding to GST-Bfl-1
binding to GST-Bcl-XL [2]: but not GST-Bcl-XL
binding to GST-Bcl-W [3]: but not GST-Bcl-W
binding to GST-Bcl-B [4]: Binding to GST-Bcl-2 and GST-Bcl-B
binding to GST-Bcl-2 [5]: Binding to GST-Bcl-2

Molecule: CN[C@@H]1C[C@H]2O[C@@](C)([C@@H]1OC)n1c3ccccc3c3c4c(c5c6ccccc6n2c5c31)C(=O)NC4 [staurosporine]
effect of doxycycline-induced Bcl-B expression on compound-induced cell death [6]: more resistant to staurosporine-induced cell death
effect of doxycycline on compound-induced cell death in control cells [7]: the same level of staurosporine-induced cell death whether or not doxycycline was added

Results, then the molecule that gave them:

fold increase of affinity in HβG buffer against PBS buffer [8]: 5 to 10 fold
Kd [9]: < 100 nM
Kd [10]: 20 nM
Kd [11]: 20 nM
Molecule: {FITC-Ahx}-FSRSLHSLLG[Ahx][dR][dR][dR][dR][dR][dR][dR][dR] [FITC-TR3-9-r8]

fluorescence polarization (mP) [12]: 160 mP
fluorescence polarization (mP) [13]: 166 mP
fluorescence polarization (mP) [14]: 158 mP
fluorescence polarization (mP) [15]: 157 mP
fluorescence polarization (mP) [16]: 163 mP
fluorescence polarization (mP) [17]: 155 mP
fluorescence polarization (mP) [18]: 163 mP
binding result [19]: no binding
fluorescence polarization (mP) [20]: 148 mP
Molecule: {FITC-Ahx}-EDIIRNIARHLAQVGDSMDR-NH2 (also called FITC-BH3 peptide; FITC-BH3) [FITC-Bid BH3 peptide]
